Measurements from patent US20260242478A1 (published 2026).
Where no end group is shown, it is not given here.

B1: Phage-3271 (peptide)
peptide: GGVLCQPAWMCIGF
notes: Peptide-180 library clone, tested as clonal M13 phage displaying the peptide fused to pIII
B2: Phage-3280 (peptide)
peptide: WNHVCIPTWMCTGM
notes: as for B1
B3: Phage-3274 (peptide)
peptide: MVVRCEPEWMCIGF
notes: as for B1
B4: Phage-3282 (peptide)
peptide: MEHWCVPAWMCSGF
notes: Peptide-180 library clone, tested as clonal phage supernatant with the peptide fused to pIII
B5: Phage-3267 (peptide)
peptide: LPYMCTPIWMCIGF
notes: as for B1
B6: Phage-3272 (peptide)
peptide: INAWCIPAWMCEGF
notes: as for B1
B7: Phage-3286 (peptide)
peptide: PTLRCEPLWMCAGF
notes: as for B4
B8: Phage-3285 (peptide)
peptide: FDTYCKPAWMCEGF
notes: as for B4
B9: Phage-3283 (peptide)
peptide: FDHLCIPVWMCKGF
notes: as for B4
B10: Phage-3275 (peptide)
peptide: FDRICKPAWMCIEF
notes: as for B1
B11: Phage-3294 (peptide)
peptide: TDVMCVPQWMCDGF
notes: as for B4
B12: Phage-3273 (peptide)
peptide: SMGLCKPPWMCAGF
modifications: not fully specified; cysteine pairing not given here
notes: as for B1
B13: Phage-3288 (peptide)
peptide: VDAYCKPAWMCLGF
notes: as for B4
B14: Phage-3268 (peptide)
peptide: VEVKCVPEWMCTGF
notes: as for B1
B15: Phage-3278 (peptide)
peptide: LPPMCIPQWMCMHF
notes: as for B1
B16: Phage-3290 (peptide)
peptide: MDVLCRPEWMCTGF
notes: as for B4
B17: Phage-3284 (peptide)
peptide: ELQRCIPQWMCVGL
notes: as for B4
B18: Phage-3270 (peptide)
peptide: LDPMCVPSWMCWGF
notes: as for B1
B19: Phage-3289 (peptide)
peptide: EDYVCRPTWMCVGF
notes: as for B4
B20: Phage-3291 (peptide)
peptide: PIPRCQPLWMCHGF
notes: as for B4
B21: Phage-3276 (peptide)
peptide: EFQMCVPEWMCTGL
notes: as for B1
B22: Phage-3279 (peptide)
peptide: GEPWCIPSWMCQGF
notes: as for B1
B23: Phage-3277 (peptide)
peptide: PARMCVPAWMCSVL
notes: as for B1
B24: Phage-3292 (peptide)
peptide: YEMRCVPDWMCVGL
notes: as for B4
B25: Phage-3281 (peptide)
peptide: VERMCKPEWMCFGF
notes: Peptide-180 library clone, tested as clonal phage supernatant with the peptide fused to pIII of the bacteriophage
B26: Phage-3287 (peptide)
peptide: ESLLCKPKWMCDWL
notes: as for B4
B27: Phage-3293 (peptide)
peptide: ETLMCIPNWMCDGF
notes: as for B4
B28: Phage-3269 (peptide)
peptide: ISPRCEPLWMCTGL
notes: as for B1

Tests used:
[1] = molecular target: T1, PSMA Fab; assay: clonal phage ELISA on biotinylated PSMA Fab captured on neutravidin, anti-M13 HRP detection, blocking buffer alone
T1 construct: In the panning ELISA the PSMA Fab was biotinylated and captured on neutravidin coated plates; also called Anti-PSMA Fab; 006 PSMA Fab
Protocol: (§1) Clonal phage were harvested as crude supernatants and screened via standard ELISAs. […] Prior to the addition of clonal phage. wells were incubated with blocking buffer and PSMA antigen or blocking buffer alone. Without washing or aspirating, clonal phage supernatants were then added to the wells and incubated for a short time. Wells were then washed followed by detection of bound phage using a horse radish conjugated anti-M13 antibody.

[2] = molecular target: T1, PSMA Fab; assay: clonal phage ELISA on biotinylated PSMA Fab captured on neutravidin, anti-M13 HRP detection, wells pre-incubated with saturating PSMA antigen as competitor
Protocol: as §1

[3] = molecular target: T2, PSMA Fab (006 PSMA Fab) (biotinylated for capture on neutravidin plates (site not stated)); assay: phage ELISA: clonal phage supernatant on biotinylated PSMA Fab captured on neutravidin plate, anti-M13-HRP detection
T2 construct: also called Anti-PSMA Fab; anti-PSMA Fab

[4] = molecular target: T2, PSMA Fab (006 PSMA Fab); assay: phage ELISA as above, wells pre-incubated with PSMA antigen as competitor
Protocol: as §1

[5] = molecular target: T3, PSMA Fab (biotinylated (site not stated)); assay: phage ELISA: clonal phage on biotinylated PSMA Fab captured on neutravidin, anti-M13-HRP detection, blocking buffer alone
T3 construct: also called Anti-PSMA Fab; 006 PSMA Fab

[6] = molecular target: T3, PSMA Fab; assay: phage ELISA on captured PSMA Fab pre-incubated with PSMA antigen as competitor, anti-M13-HRP detection
Protocol: as §1

[7] = molecular target: T4, PSMA Fab; assay: clonal phage ELISA; biotinylated PSMA Fab on neutravidin plate; anti-M13 HRP detection
T4 construct: also called Anti-PSMA Fab; 006 PSMA Fab
Protocol: as §1

[8] = molecular target: T4, PSMA Fab; assay: clonal phage ELISA; biotinylated PSMA Fab on neutravidin plate, wells pre-incubated with PSMA antigen as competitor; anti-M13 HRP detection;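 also: crude clonal phage supernatants added to antigen-treated wells without a wash, incubated briefly, then bound phage read out via horse radish–conjugated anti-M13 antibody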
Protocol: as §1

Row | Binder | Phage binding ELISA signal, Anti-PSMA Fab [3] | Phage binding ELISA signal, Anti-PSMA Fab in presence of PSMA [4] | Phage binding ELISA signal, Anti-PSMA Fab [5] | Phage binding ELISA signal, Anti-PSMA Fab with PSMA antigen [6] | also measured
1 | AEHVCRPAWMCTVF [Phage-3313] |  |  |  |  | Phage binding ELISA signal, Anti-PSMA Fab [1]: 1.86; Phage binding ELISA signal, Anti-PSMA Fab with PSMA antigen [2]: 0.0585
2 | B1 | 1.9 | 0.0804 |  |  | 
3 | B2 | 1.9 | 0.0817 |  |  | 
4 | B3 | 1.9 | 0.0649 |  |  | 
5 | LEFRCVPEWMCVGF [Phage-3311] |  |  |  |  | Phage binding ELISA signal, Anti-PSMA Fab [1]: 1.87; Phage binding ELISA signal, Anti-PSMA Fab with PSMA antigen [2]: 0.111
6 | B4 |  |  | 1.89 | 0.264 | 
7 | EENFCVPKWMCEGF [Phage-3264] |  |  |  |  | Phage binding ELISA signal, Anti-PSMA Fab [7]: 1.91; Phage binding ELISA signal, Anti-PSMA Fab in presence of PSMA [8]: 0.126
8 | NWKVCEPTWMCEGF [Phage-3308] |  |  |  |  | Phage binding ELISA signal, Anti-PSMA Fab [1]: 1.87; Phage binding ELISA signal, Anti-PSMA Fab with PSMA antigen [2]: 0.0575
9 | FFKMCIPEWMCSGF [Phage-3263] |  |  |  |  | Phage binding ELISA signal, Anti-PSMA Fab [7]: 1.91; Phage binding ELISA signal, Anti-PSMA Fab in presence of PSMA [8]: 0.205
10 | B5 | 1.91 | 0.143 |  |  | 
11 | EYQVCKPTWMCTGF [Phage-3266] |  |  |  |  | Phage binding ELISA signal, Anti-PSMA Fab [7]: 1.91; Phage binding ELISA signal, Anti-PSMA Fab in presence of PSMA [8]: 0.0904
12 | EIMLCKPEWMCYGF [Phage-3265] |  |  |  |  | Phage binding ELISA signal, Anti-PSMA Fab [7]: 1.91; Phage binding ELISA signal, Anti-PSMA Fab in presence of PSMA [8]: 0.0998
13 | B6 | 1.9 | 0.137 |  |  | 
14 | B7 |  |  | 1.89 | 0.0911 | 
15 | VEIACKPQWMCLGF [Phage-3315] |  |  |  |  | Phage binding ELISA signal, Anti-PSMA Fab [1]: 1.86; Phage binding ELISA signal, Anti-PSMA Fab with PSMA antigen [2]: 0.0766
16 | IEKLCKPQWMCEGF [Phage-3310] |  |  |  |  | Phage binding ELISA signal, Anti-PSMA Fab [1]: 1.87; Phage binding ELISA signal, Anti-PSMA Fab with PSMA antigen [2]: 0.129
17 | VERACVPAWMCTGF [Phage-3309] |  |  |  |  | Phage binding ELISA signal, Anti-PSMA Fab [1]: 1.87; Phage binding ELISA signal, Anti-PSMA Fab with PSMA antigen [2]: 0.0832
18 | B8 |  |  | 1.89 | 0.0818 | 
19 | B9 |  |  | 1.89 | 0.0828 | 
20 | B10 | 1.9 | 0.0573 |  |  | 

Row | Binder | Phage binding ELISA signal, Anti-PSMA Fab [3] | Phage binding ELISA signal, Anti-PSMA Fab in presence of PSMA [4] | Phage binding ELISA signal, Anti-PSMA Fab [5] | Phage binding ELISA signal, Anti-PSMA Fab with PSMA antigen [6] | also measured
21 | B11 |  |  | 1.89 | 0.106 | 
22 | B12 | 1.9 | 0.0756 |  |  | 
23 | B13 |  |  | 1.89 | 0.0998 | 
24 | B14 | 1.91 | 0.0868 |  |  | 
25 | B15 | 1.9 | 0.0592 |  |  | 
26 | B16 |  |  | 1.89 | 0.0971 | 
27 | B17 |  |  | 1.89 | 0.0731 | 
28 | B18 | 1.9 | 0.0992 |  |  | 
29 | B19 |  |  | 1.89 | 0.0755 | 
30 | B20 |  |  | 1.89 | 0.085 | 
31 | LLEMCKPHWMCVGF [Phage-3314] |  |  |  |  | Phage binding ELISA signal, Anti-PSMA Fab [1]: 1.86; Phage binding ELISA signal, Anti-PSMA Fab with PSMA antigen [2]: 0.085
32 | B21 | 1.9 | 0.0838 |  |  | 
33 | B22 | 1.9 | 0.091 |  |  | 
34 | B23 | 1.9 | 0.0732 |  |  | 
35 | B24 |  |  | 1.89 | 0.0906 | 
36 | B25 |  |  | 1.9 | 0.102 | 
37 | DLRWCIPEWMCIGI [Phage-3312] |  |  |  |  | Phage binding ELISA signal, Anti-PSMA Fab [1]: 1.86; Phage binding ELISA signal, Anti-PSMA Fab with PSMA antigen [2]: 0.0809
38 | B26 |  |  | 1.89 | 0.0996 | 
39 | B27 |  |  | 1.89 | 0.0837 | 
40 | B28 | 1.91 | 0.0836 |  |  | 
